Assay results: PMC9864903, “Imaging of the Glucose-Dependent Insulinotropic Polypeptide Receptor Using a Novel Radiolabeled Peptide Rationally Designed Based on Endogenous GIP and Synthetic Exendin-4 Sequences” (Pharmaceuticals, 2022)

Key:
[1] = post-production stability of the 68Ga-labeled product at room temperature (UV-Radio-HPLC); assay type: physicochemical; details: ambient temperature, for at least 2 h, with addition of ascorbic acid
Source text: The ^68Ga-labeling procedure was optimized in terms of the radiochemical yield and required optimization of such factors as temperature, heating time, radical scavenger content, buffer concentration, pH, and product purification mean. The labeling was reproducible with a high non-decay corrected radiochemical yield of 61.1 ± 2.9% and a molar activity of 59.8 ± 4.4 MBq/nmol at the end of the synthesis (Figure 2). The radioactivity at the end of the synthesis was 424 ± 29 MBq with a radiochemical purity of 94.5 ± 0.3% (for the chromatogram, see Supplementary Materials, Figure S1). […]
The ^68Ge/^68Ga generator (pharmaceutical grade, GalliaPharm®, Eckert & Ziegler, Berlin, Germany) eluate was fractionated, and the top fraction of 3.5 mL containing approximately 90% of the radioactivity was collected for the radiolabeling. […] The radiochemical purity and the peptide concentration in the product were determined by high-pressure liquid chromatography (HPLC). […] The stability of the product at room temperature was monitored for 2 h and assessed by UV-Radio-HPLC. […] The total radioactivity of the product was then measured in an ionization chamber. The radioactivity recovery from the analytical column was controlled by performing an analysis of the product, generator eluate, and the product spiked with the generator eluate with and without column. […]

[2] = assay type: in vitro ADME; details: 37 °C, polyacrylamide gel electrophoresis with autoradiography
Description: Stability of [^68Ga]Ga-GIP-C803 was studied in human plasma, wherein the agent was incubated at 37 °C for under 30 s, 5 min, 45 min, and 90 min. Thereafter, the samples were analyzed by polyacrylamide gel electrophoresis. To enable the interpretation of the results, a number of references were applied along with the molecular weight marker (Figure S2). The gel was imaged by GelDoc Go Imaging System (Biorad, Hercules, CA, USA) for protein/peptide signals and, thereafter, exposed to a phosphor-imager screen overnight and digitalized using the Cyclone Phosphor Imager system (PerkinElmer) for radioactivity signals. The amount of the sample radioactivity loaded on the gel was controlled by a reference drop of the same sample volume on a filter paper exposed to the same screen. The images were analyzed by ImageJ (NIH, Bethesda, MD, USA) and Image Lab (Biorad) software.
Radiolabeling of C803‐GIP
Figure 1S. Typical HPLC-chromatograms with UV absorption profile (lower panel) and radioactivity signal profile (upper panel) of [68Ga]Ga-C803-GIP.
Stability of [68Ga]Ga‐GIP‐C803 in human plasma
Stability of [68Ga]Ga-GIP-C803 was studied in human plasma, wherein the agent was incubated at 37 °C for under 30 seconds, 5 min, 45 min and 90 min. Thereafter, the samples were analyzed by polyacrylamide gel electrophoresis. […] The images were analyzed by ImageJ (NIH, US) and Image Lab (Biorad) software. […]

## CC[C@H](C)[C@H](NC(=O)[C@H](CO)NC(=O)[C@H](Cc1ccc(O)cc1)NC(=O)[C@H](CC(=O)O)NC(=O)[C@H](CO)NC(=O)[C@@H](NC(=O)[C@H](Cc1ccccc1)NC(=O)[C@@H](NC(=O)CNC(=O)[C@H](CCC(=O)O)NC(=O)[C@@H](C)NC(=O)[C@@H](N)Cc1ccc(O)cc1)[C@@H](C)O)[C@@H](C)CC)C(=O)N[C@@H](C)C(=O)N[C@@H](CC(C)C)C(=O)N[C@@H](CC(=O)O)C(=O)N[C@@H](CCCCN)C(=O)N[C@H](C(=O)N[C@@H](Cc1c[nH]cn1)C(=O)N[C@@H](CCC(N)=O)C(=O)N[C@@H](CCC(N)=O)C(=O)N[C@@H](CCC(=O)O)C(=O)N[C@@H](Cc1ccccc1)C(=O)N[C@H](C(=O)N[C@@H](CCC(=O)O)C(=O)N[C@@H](Cc1c[nH]c2ccccc12)C(=O)N[C@@H](CC(C)C)C(=O)N[C@@H](CCCCN)C(=O)N[C@@H](C)C(=O)NCC(=O)NCC(=O)N[C@@H](Cc1c[nH]cn1)C(=O)N1CCC[C@H]1C(=O)N[C@@H](CO)C(=O)NCC(=O)N[C@@H](C)C(=O)N1CCC[C@H]1C(=O)N1CCC[C@H]1C(=O)N1CCC[C@H]1C(=O)N[C@@H](CO)C(=O)N[C@@H](CSCCS(=O)(=O)CCN1CCN(CC(=O)O)CCN(CC(=O)O)CCN(CC(=O)O)CC1)C(N)=O)[C@@H](C)CC)[C@@H](C)CC [[^68Ga]Ga-C803-GIP, metal not drawn]
[1]
  radiochemical purity on post-production storage (stability): over 91%
[2]; incubated <30 s, 5, 45, 90 min
  time stable in human plasma: at least 90 min
[2]; up to 90 min
  stability in human plasma (in words): stable
